{"source": "paper doi:10.1101/2023.04.09.536162v1", "substrate": "C[C@@H](O)[C@H](N)C(=O)O", "assay": "purified protein", "conditions": "natural substrate", "data": [{"protein": "NmLTA (Neptunomonas marina) (protein) MASNDSCIEDTVSFTSDNIAAAAPEIVQAMAQACQGNAQPYGGDALTQNVEAQLKAIFECDLQLFLVPTGSAANAISLAALTPPWGAILCHQESHINNDECGAPEFFTAGAKLIAVAGTHGKLDPQALTQAARNKRGDVHSVEPTTVSITQATEVGSIYALDELNEIGQICRNEGLKLHMDGARFANALSALGCTPAEMTWKAGVDVLSFGATKNGSLCAEAIILFDKSYAQEIAFRRKRGGHLLSKMRFLSAQMHAYLADDLWLTNARHANLMAARLAAGLSALSRVSLIAPTESNIIFCRMPTKMIAALQQQGFQFYHDRWGDGIVRLVTSFATTQAQVDTFIAAAAQLNQNTD", "values": [{"measurement": "Km", "value": 12.3, "unit": "mM"}, {"measurement": "kcat", "value": 805.7, "unit": "s⁻¹"}]}]}
